Assay: label from the status in PepcDB records

| Sequence | protein production |
| --- | --- |
| MESDRNLNYINLFMIFVNLIIIVFTSEIMTITLYKISSEFMARDFLDQITVIPWKPQNITIVSIGAYIILIILITVKKKYAKFLNKWEIAALLLCEIFFSVAIMTALNMSYNGIILFIIADLVTNTKDKSNKIIFLILMIIIYIFSVYDFISLKIKMVSFENFLYYYTANRRSYLMELKSILNSINIIVFILYMIVFIQVQMRENEKITSLNKKLNLANEKLEVMNVQLKEYAVKIGSMAETRERNRMAREIHDTLGHALTGISVGIDACLTTIDVSKELTKKQLNIIADVAREAIKDVRRSVKKLRPDALENSSLQDALNNMISRISKATKTKVFLNANIKLLKFGHDEEDTIYRIIQEGITNSIRHGQAEEIYIDMIRRDKQLNITIRDNGKGCANVEEGFGLRHIEERVKLLNGTVEYDGSDSFLITVNIPIRWGDGS | failed |
| MESIGLVEVNSIARGIEAADAMLKAAQVDLLEAKPVCPGKYIVLICGDVAAVQSSVTAGKTMAAHSVLDDFILPNVHPQVLTAISAATPLTLIKALGIIETFSIASLIVAADTAAKTGQVDLVEIRIGMGIGGKSFVTLTGDVASVESSVAAGVMLASERGMLVDKVVIPSPHDHLKRCLC | not failed |
| MESITEWDLGSLRTYYSVEPSENFQEDEFLDFNLVPCLQTELWKAQTRIKELEAEKFKSEETIRCLIRNQRNEKEETTNPFVDYLKEKLSKEREEKKRVKAENSRLKKKILDMESSVNRLRRERDTMEKVCEELVTRIDELKVNTRRVWDETEEERQMLQMAEMWREERVRVKFMDAKLALQEKYEEMNLFVVELEKCLETAREVGGIEEKRLRHGEGLIKMAKSMEVVDSKIDFERFEFVSDEGNV | failed |
| MESITQIYRIGYGPSSSHTIGPRRAAEMFLDRNPRATSFRVTLYGSLAATGKGHLTDAAILAVLEAKAPTEIVWKPEIFQNFHPNGMLFESFDKEGKQLDDWLIYSIGGGVLANEHFNEQ | not failed |
| MESITVTELKEKILDANPVNIVDVRTDQETAMGIIPGAETIPMNSIPDNLNYFNDNETYYIICKAGGRSAQVVQYLEQNGVNAVNVEGGMDEFGDEGLDIKSILEHHHHHH | not failed |
| MESKEERALNNLIVENVNQENDEKDEKEQVANKGEPLALPLNVSEYCVPRGNRRRFRVRQPILQYRWDIMHRLGEPQARMREENMERIGEEVRQLMEKLREKQLSHSLRAVSTDPPHHDHHDEFCLMP | not failed |
| MESRWNDEDAARFVEAARAEGQSEALGLRIYTSRLIGSDPDLVLHGGGNTSVKIRSDEGEQLMHIKGSGWDLDTIEAPGLPAVRLASLLEARNTPKLSDPDMVLLLRASLIEKDAPNPSVEALLHAFIPFDYVDHTHATAVLALADQPNMRDAIRRIYGDRLAYVPYVMPGFDLSIAADRIYRSHSDCEGLWLENHGLFSFANDARASYDLMIEFVTLAEQELARAGVALSGPQPNDGER | failed |
| METELVTYKEKNVQMSMLEVIGMIGIIFGVMYGIGYLNFLYEFSLYPWYVNHLISPFTFCMIIVMYAPARNYCVQLVKSIQFNHFKHYVTIVMTMIVLLIYLAVLNLVLPHGLGVEGSNIVIEPTKNEIILYVVVLTIFAPIWEELVFRGMFFMKLSQRFSTLSSAVISAFIFTLGHPLTVGSILYIFGIGICLAYTYKKTNNLLVPIGIHVLNNSFNLLVNFQL | failed |
| METEYDQVLRSVAQVNIADQIGESDDVERDGNGVKVSCFTEVFDDVTIQFQIIRLAKQIYVWVGCNSAKFGSLYAAASTRPSNTVSVTSVLGGTSDNTGSGIARRLVLKTGLNIILACNIPKNNPLLEAKAEKVLIRKLIDLGYTMSKPVRAT | failed |
| METKANYTIVGIFTLIVIAAAFGFVYWMAEFGRGGPTAQLVVRIPGSANGLSVGSPVRFNGIPVGTVRGLAIDRDDPAYSIAFTEVQADAPVFPSTRAVLEIQGLTGAAYIELSGGNKDGERILQKSVESGVPAELTADLSSVTNLLATADKILKRADGAIGELQGFVQDARGPLTQTVRNAEKFSDALAANSDGIKNFIASLSSLSTTVQSVSVRLDGTLTAVENLVKAVDAGKIDSILSNVDKVTKDVASASSDIQGIMETVQSTARNFEAASTEVQTVVKRADELLASVDPAKVSTVVGDVSAATADARDAVANFKRIADDVGARRADIDQAVSDFTEMGRKLNLASSRVDGILAKVDGMLGTDDANSLFAKARETLTSFKAVADNLNARIGPIADNLTRFSSSGLKDFQALIGSTRQTVDNLNNAITNIDRDPQRLIFGGETVKQYDGRTRRLEHHHHHH | failed |
| METKCELNNTKKVANAFGLNEEDTNLLINAVDLDIKNNMQEISSELQQSEQSKQKQLGTTLQNLAKQNRIIK | failed |
| METLELFKVISRWLFLLSIGYYLLTNLQWYSYKIERVFFKHHKWRWHILYFFMPILFFFLLGDYFYIYLYVAQLPGVMLWAKKLDKPLIFTGRVKRFFAIYAGFMLFSELLCTTTGGECDKVLYLFPLFFTILITYVLERVLLNRYATAAKDKLASMPNLTIIAITGSYGKTSLKNFLAQILNDNFKVHASPRSVNTFAGIVADINENLSPLSDIYIAEAGARTRGDIKEIGVLLEHHYGIVGKVGEQHMEYFRTLENVRETKFELAQSPRLKELFSYEGNTPPSGIKATSFPTETRNIKATLKGTSFEMLIEGQFYPFETEVLGEFNVTNISAAILVALRLGIPIEKIQRQVARLKPIPHRLQKMEVNLKLILDDSFNGNLEGMLEAIRLSSLYYGRKVIVTPGLVESTEEANTTLAQAINETFDIAILTGELNLKTLSAHIQKPQKVVVKEKEALEEVLKATTREGDLILFANDAPSYI | failed |
| METQDHTLYVLLGPTGVGKTDLSLDIAERLGSPIISADSRQIFRELPIGTAAPTPEQRAKVPHLFVGTHSVRDYYSAGMYEVEVLEALKELFRKYRGVLLTGGSMMYIDAVCRGIDDIPDPFPEVREELYARYAAEGLDGILAQLRLLDPDYYAKVDRRNYKRVIHGLEICLSTGRPFSSFHRHEAKERPFRIVKIGLYREREELCKRIDARVLEMMEQGLEEEARAVYPLRHLNALNTVGYKEMFEYFDGSIDRAEAVRRIQRNSRVYARKQMTWFRRDSTIRWFHPEADKGTVLTLVT | failed |
| METRAHHVLIGLFSVIVIGAALLFGLWLAKSGSEGKFNYYDIVFNEAVSGLSQGSSVQYSGIKVGDVAFLRLDPKDPRKVWARIRVVASAPIKQDTTAKLALTGITGTSIIQLSSGTPASPMLEGKDGKIPVIVATPSPLTQLLSNGEDLMGNINQLIARFSNLLSEENTARISRTLDHLDQATGALSAERENVSAVMQQLAQASRQANAALAQASELMRSANGLLNEQGKGMLENANKTMASLERTSATLDQLISENRHSLDGGIQGLAELGPAVSELRDTLAALRGISRRLEENPANYLLGREKTKEFTP | failed |
| METRASYILVGVFTLLAVTGALAFVLWTAGRGEGKAMAAYDVHFSGNVMGLSVASDVFFNGVKVGAVKQITLNPDDPAKVKVRIEIDATTPVREDSVASLEGRGLTGVSVVQITGGSPHAPLLVGTAGEVPVIASRASRLEELFAGMPQLVGSGNELVNRLADVLNAENRAALASTFHALDTVTARMAARADSLDRIITNMDTTTRRLANASAGLETLAGDMRDLTRGDMRDSIVAVGNTARRLDALLAAAEPGVTGFSTEGLEDMRRLLIESRHLVTTLNRMAQRMESDPRRFMFGNQLPEYEER | failed |
| METRTLEDWRALLEAEKTLDSGVYNKHDLLIVRGQGARVWDAEGNEYIDCVGGYGVANLGHGNPEVVEAVKRQAETLMAMPQTLPTPMRGEFYRTLTAILPPELNRVFPVNSGTEANEAALKFARAHTGRKKFVAAMRGFSGRTMGSLSVTWEPKYREPFLPLVEPVEFIPYNDVEALKRAVDEETAAVILEPVQGEGGVRPATPEFLRAAREITQEKGALLILDEIQTGMGRTGKRFAFEHFGIVPDILTLAKALGGGVPLGAAVMREEVARSMPKGGHGTTFGGNPLAMAAGVAAIRYLERTRLWERAAELGPWFMEKLRAIPSPKIREVRGMGLMVGLELKEKAAPYIARLEKEHRVLALQAGPTVIRFLPPLVIEKEDLERVVEAVRAVLA | not failed |
| METTSVFRADFLSELDAPAQAGTESAVSGVEGLPPGSALLVVKRGPNAGSRFLLDQAITSAGRHPDSDIFLDDVTVSRRHAEFRLENNEFNVVDVGSLNGTYVNREPVDSAVLANGDEVQIGKFRLVFLTGPKQGEDLEHHHHHH | failed |
| MEVIREQEFVNQYHYDARNLEWEEENGTPKTNFEVTFQLANRDEAAKVTSIVAVLQFVIVRDEFVISGVISQMAHIQGRLINEPSEFSQDEVENLAAPLLEIVKRLTYEVTEIALDRPGVTLEF | not failed |

Source: a protein production outcome set (Wang et al. 2014)
